Reference: article PMC6179186, “Novel RNA aptamers targeting gastrointestinal cancer biomarkers CEA, CA50 and CA72-4 with superior affinity and specificity”

B1: CEA A02 (structured_RNA)
RNA: GGGUCGUGUCGGAUCCAACGGCAUGACCUAACCUGGAGGCGCAUCAAAGCUUCUAAGGUAACGAU

Tests used:
[1] = tested on: CA72-4 (cancer antigen 72-4) (human); experiment: fluorescence titration; settings: 5 mM MgCl2; yeast tRNA competitor 1 ug/ul; RSB-100: 10 mM Tris-HCl pH 7.5, 5 mM MgCl2, 100 mM NaCl, 0.01% NP-40, yeast tRNA 1 ug/ul, room temperature, 10 min; 1 pmol RNA, antigen 0-200 nM
[2] = tested on: CA50 (cancer antigen 50) (human); experiment: fluorescence titration; settings: 5 mM MgCl2; yeast tRNA competitor 1 ug/ul; RSB-100: 10 mM Tris-HCl pH 7.5, 5 mM MgCl2, 100 mM NaCl, 0.01% NP-40, yeast tRNA 1 ug/ul, room temperature, 10 min; 1 pmol RNA, antigen 0-200 nM
[3] = biological target: CEA (carcinoembryonic antigen) (human, UniProt P06731 35-685); experiment: fluorescence titration; 5 mM MgCl2; yeast tRNA competitor 1 ug/ul; RSB-100: 10 mM Tris-HCl pH 7.5, 5 mM MgCl2, 100 mM NaCl, 0.01% NP-40, yeast tRNA 1 ug/ul, room temperature, 10 min; 1 pmol RNA, antigen 0-200 nM; settings: protein: commercial; label: Alexa Fluor 488 (ULS); mfold-predicted secondary structure
Sequence of CEA (carcinoembryonic antigen) (P06731 35-685): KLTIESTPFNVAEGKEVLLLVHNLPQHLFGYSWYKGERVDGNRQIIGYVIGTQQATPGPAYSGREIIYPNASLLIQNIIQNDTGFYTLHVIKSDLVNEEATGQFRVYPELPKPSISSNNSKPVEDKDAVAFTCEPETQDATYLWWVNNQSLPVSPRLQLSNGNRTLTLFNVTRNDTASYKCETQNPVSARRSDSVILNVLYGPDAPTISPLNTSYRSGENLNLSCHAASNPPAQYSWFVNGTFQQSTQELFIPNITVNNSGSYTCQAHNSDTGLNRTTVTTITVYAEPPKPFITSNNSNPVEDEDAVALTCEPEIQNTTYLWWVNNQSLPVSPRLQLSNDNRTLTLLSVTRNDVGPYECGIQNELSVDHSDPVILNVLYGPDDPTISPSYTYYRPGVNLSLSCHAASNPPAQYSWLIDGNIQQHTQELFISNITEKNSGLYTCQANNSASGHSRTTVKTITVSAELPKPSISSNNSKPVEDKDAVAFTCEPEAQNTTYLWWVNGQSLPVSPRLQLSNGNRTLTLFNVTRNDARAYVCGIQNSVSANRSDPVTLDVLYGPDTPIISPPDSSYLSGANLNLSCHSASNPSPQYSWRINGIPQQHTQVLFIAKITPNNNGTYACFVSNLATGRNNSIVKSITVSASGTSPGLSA

Molecule | Kd [1] [nM] | Kd [2] [nM] | other results
GGGUCGUGUCGGAUCCUGCGAAGGGGGGCAGAGGUUUGACGCGAGAAAGCUUCUAAGGUAACGAU [CA72-4 A01] | 52.7 |  | 
GGGUCGUGUCGGAUCCCCCAAAAAGGAUUGGGGCGUCUGCAUGACCAAGCUUCUAAGGUAACGAU [CA72-4 A02] | 71.2 |  | 
GGGUCGUGUCGGAUCCAGCUCGAAAGUGGGCUGGCGAUGUGUCCCGAAGCUUCUAAGGUAACGAU [CA50 A02] |  | 30.7 | 
GGGUCGUGUCGGAUCCGUGAGUUUUUCGCGGCGAAGACAAGGCUCGAAGCUUCUAAGGUAACGAU [CA50 A01] |  | 38 | 
B1 |  |  | Kd [3]: 156 nM
